Measured values: patent US20240301046A1 (MABWELL THERAPEUTICS, published 2024)
Where two headings read alike, the source gives them in different places.

Experiments:
[1] = biological target: T1, HiLyte488 labelled Aβ1-42 protofibrils (UniProt P05067 672-713, HiLyte488 fluorophore on part of the peptides (labelled and unlabelled Aβ1-42 monomers mixed 1:5)); test: cell-based or functional assay
[2] = biological target: T2, Aβ1-42 (rPeptide, A-1167-2) (UniProt P05067 672-713); test: direct ELISA, coated Aβ1-42
T2 construct: domain: Aβ1-42; also called Abeta 1-42
Experimental: Direct ELISA was used to test each antibody's affinity for Aβ₁₋₄₂ and pyroglutamate-modified Aβ (Aβₚ₃₋₄₂). Plates were coated with 0.5 μM of Aβ₁₋₄₂ (rPeptide, A-1167-2) or Aβₚ₃₋₄₂ (AnaSpec, AS-29907-01) for 2 h at 4° C. Diluents of antibodies (3-fold serial dilutions with concentrations in the range of 0-100 nM) were added to the plate for 1 h at RT. Binding of antibody to immobilized Aβ on each plate was detected by HRP-labeled secondary antibody and TMB substrate, as described in Example 2.

[3] = biological target: T3, biotin-labelled Aβ1-40 monomer (AnaSpec, AS-61483-01) (UniProt P05067 672-711, biotin label, position not stated); test: capture ELISA, coated antibody, biotin-Aβ1-40 monomer
T3 construct: domain: Aβ1-40; also called biotin-conjugated Aβ40 monomer; biotin-Aβ monomer
Experimental: (§1) A 96-well plate was coated with 5 μg/mL of antibodies overnight at RT. The plate was then treated with diluents of biotin-labelled Aβ₁₋₄₀ monomers (AnaSpec, AS-61483-01, 4-fold serial dilutions with concentrations in the range of 0-1000 nM) for 1 h at RT. The binding of biotin-labelled Aβ₁₋₄₀ monomers with immobilized antibody was detected by HRP-conjugated streptavidin and TMB, as described in Example 2.

[4] = biological target: T2, Aβ1-42 (rPeptide, A-1167-2); test: direct ELISA, coated Aβ1-42; remark: listed apart in the source
[5] = biological target: T4, pyroglutamate-modified Aβ (Aβp3-42) (AnaSpec, AS-29907-01) (UniProt P05067 674-713, pyroglutamate at Aβ position 3 (the N-terminus)); test: direct ELISA, coated Aβp3-42
T4 construct: domain: Aβp3-42; also called Abeta p3-42

[6] = biological target: T3, biotin-labelled Aβ1-40 monomer …; test: capture ELISA, coated antibody, biotin-Aβ1-40 monomer; remark: listed apart in the source
[7] = biological target: T1, HiLyte488 labelled Aβ1-42 protofibrils; test: cell-based or functional assay; remark: listed apart in the source
[8] = biological target: T2, Aβ1-42 (rPeptide, A-1167-2); test: direct ELISA, coated Aβ1-42; remark: listed apart in the source
[9] = biological target: T3, biotin-labelled Aβ1-40 monomer …; test: capture ELISA, coated antibody, biotin-Aβ1-40 monomer; remark: listed apart in the source
Experimental: The plate was incubated for 1 h at RT and washed 3 times with PBST. The plate was then incubated with HRP-conjugated streptavidin (Thermo Fisher Scientific, SNN2004) at 1:5000 diluted in 1% BSA for 20 min at RT and washed 3 times. TMB Stabilized Chromogen substrate solution (Life Technologies, SB02) was added to the plate, and the reaction was stopped by adding 1M sulfuric acid. The absorbance at 450 nm was measured in a plate reader.
as §1

[10] = biological target: T2, Aβ1-42 (rPeptide, A-1167-2); test: direct ELISA, coated Aβ1-42; remark: listed apart in the source

Row | Binder | ADCP (RFU) [1] [RFU] | EC50 [2] [nM] | EC50 [3] [nM] | other results
1 | 21G10A (antibody, V domains shown) VH: EVQLVESGGGSVQPGGSLRLSCAASGFTFSSYWMHWVRQAPGKGLVWVSRINSDGSITTYADSVKGRFTISRDNAKNTLYLQMNSLRAEDTAVYYCARGGGSLDYWGQGTLVTVSS VL: QSVLTQPPSVSAAPGQKVTISCSGSSSNIGNYYVSWYQQLPGTAPKLLIYDNNKRPSGIPDRFSGSKSGTSATLGITGLQTGDEADYYCGTWDSSLSAVVFGGGTKLTVL | 245000 | 0.042 | 0.02 | –
2 | 17P04A(hIgG1) (antibody, fully human IgG1 lambda, expressed in CHO cells; also called Fully human 17P04A (hlgG1)) heavy: not shown light: QTVVTQEPSLTVSPGGTVTLTCASSTGAVTSDYYPNWFQQKPGQAPRALIYSASTKHSWTPARFSGSLLGGKAALTLSGVQPEDEADYYCLLYYGGAWVFGGGTKLTVLGQPKAAPSVTLFPPSSEELQANKATLVCLISDFYPGAVTVAWKADSSPVKAGVETTTPSKQSNNKYAASSYLSLTPEQWKSHRSYSCQVTHEGSTVEKTVAPTECS | – | – | – | EC50 [4]: 0.062 nM; EC50 [5]: 38.7 nM; EC50 [6]: 33.8 nM
3 | 22H10A (antibody, V domains shown) VH: EMQLVESGGGLVKPGGSLRLSCAASGFTFSSYSMNWVRQAPGKGLEWVSSISTRKNYIYYADSVQGRFIFSRDNAKNALYLQMNSLRAEDSAVYYCTRGGYIRSPNAFDIWGQGTMVTVSS VL: QTVVTQEPSLTVSPGGTVTLTCASSTGTVTSGYFPNWLQQKPGQAPRALIYSINNKHFWTPARFSGSLLGGKAALTLSGVQPEDEAEYYCLLYYGGAWVFGGGTKLTVL | 99100 | 0.075 | 0.07 | –
4 | 18P01A(mIgG2a) (antibody, chimeric: human F(ab')2, mouse IgG2a CH2-CH3, recombinant) heavy: EVQLVESGGGLVQPGGSLKLSCAVSGFTFSGSAMHWVRQASGKGLEWVGRIRSKANSYATAYAASVKGRFTISRDDSKNTAFLQMNSLKTEDTAVYYCTSHAPNFDAFDIWGQGTMVTVSSASTKGPSVFPLAPCSRSTSESTAALGCLVKDYFPEPVTVSWNSGALTSGVHTFPAVLQSSGLYSLSSVVTVPSSNFGTQTYTCNVDHKPSNTKVDKTVERKCPPCKCPAPNLLGGPSVFIFPPKIKDVLMISLSPIVTCVVVDVSEDDPDVQISWFVNNVEVHTAQTQTHREDYNSTLRVVSALPIQHQDWMSGKEFKCKVNNKDLPAPIERTISKPKGSVRAPQVYVLPPPEEEMTKKQVTLTCMVTDFMPEDIYVEWTNNGKTELNYKNTEPVLDSDGSYFMYSKLRVEKKNWVERNSYSCSVVHEGLHNHHTTKSFSRTPGK light: QSVLTQPPSVSAAPGQKVTISCSGSSSNIGNHYVSWYQQLPGTAPKFFIYDNSKRPSGIPDRFSGSKSGTSATLGITGLQTGDEADYYCGTWDSSLSTYVFGTGTKVTVLGQPKAAPSVTLFPPSSEELQANKATLVCLISDFYPGAVTVAWKADSSPVKAGVETTTPSKQSNNKYAASSYLSLTPEQWKSHRSYSCQVTHEGSTVEKTVAPTECS | – | – | – | ADCP (RFU) [7]: 488000 RFU; EC50 [8]: 0.087 nM; EC50 [9]: 248 nM
5 | 18P01A(hIgG1) (antibody, fully human IgG1 lambda, expressed in CHO cells; also called Fully human 18P01A (hlgG1); fully human 18P01A) heavy: not shown light: QSVLTQPPSVSAAPGQKVTISCSGSSSNIGNHYVSWYQQLPGTAPKFFIYDNSKRPSGIPDRFSGSKSGTSATLGITGLQTGDEADYYCGTWDSSLSTYVFGTGTKVTVLGQPKAAPSVTLFPPSSEELQANKATLVCLISDFYPGAVTVAWKADSSPVKAGVETTTPSKQSNNKYAASSYLSLTPEQWKSHRSYSCQVTHEGSTVEKTVAPTECS | – | – | – | fold increase of EC50 against the original chimeric 18P01A [10]: > 800 fold; EC50 [4]: 50 nM; EC50 [5]: 196 nM; EC50 [6]: 917 nM

Continued, in another order:

Row | ADCP (RFU) [1] [RFU] | EC50 [2] [nM] | EC50 [3] [nM] | Binder | other results
6 | 194000 | 0.075 | 0.34 | 17D08A (antibody, V domains shown) VH: EVQLVESGGGLVQPGGSLKLSCAASGFTFSGSAIHWVRQASGKGLEWVGRIRSKVNSYATAYAASVKGRFTISRDDSKNTAYLQMNSLKTEDTAVYYCTRHAPNFDAFDIWGQGTMVTVSS VL: QSVLTQPPSVSAAPGQKVTISCSGYSSNIGNHYVSWYQQLPGTAPKFFIYDNNKRPSGIPDRFSGSKSGTSATLGITGLQTGDEADYYCGTWDSSLITYVFGTGTKVTVL | –
7 | 273000 | 0.038 | 0.78 | 15M13A (antibody, V domains shown) VH: QVTLKESGPGILQPSQTLSLTCSFSGFSLSTFGMGVGWIRQPSGKGLEWLAHIWWDDDKYYNPALKSRLTISKDTSKNQVFLKIANVDTADTATYYCARLGYYPYWFFDVWGTGTTVTVSS VL: QSVLTQPPSVSAAPGQKVTISCSGSSSNIGNHYVSWYQQLPGTAPKLLIYDNNKRPSGIPDRFSGSKSGTSATLGITGLQTGDEADYYCGTWDTSLSAVVFGGGTKLTVL | –
8 | 257000 | 0.05 | 0.01 | 20O11A (antibody, V domains shown) VH: EVQLVESGGGLVQPGGSLRLSCAASGFTFSSYWMHWVRQAPGKGLAWVARINSDGSSTSYADSVKGRFTISRDNAKNTLYLQMNSLRAEDTAVYYCARGGGLFDYWGQGTLVTVSS VL: QSVLTQPPSVSAAPGQKVTISCSGSSSNIGNHYVSWYQQLPGTAPKLLIYDNNKRPSGIPDRFSGSKSGTSATLGITGLQTGDEADYYCGTWDSSLGAVLFGGGTKLTVL | –
9 | 279000 | 0.051 | 0.02 | 17H05A (antibody, V domains shown) VH: EVQLVESGGGSVQPGGSLRLSCAASGFTFSSYWMHWVRQVPGKGLVWVSRINSDGSITSYADSVKGRFTISRDNAKNTLYLQMNSLRAENTAVYYCARGGGSLDYWGQGTLVTVSS VL: QSVLTQPPSVSAAPGQKVTISCSGSSSNIGNYYVSWYQQLPGTAPKLLIYDNHKRPSGIPDRFSGSKSGTSATLGITGLQTGDEADYYCGTWDSSLSAVVFGGGTKLTVL | –
10 | 126000 | 0.068 | – | 18F06A (antibody, V domains shown) VH: EVQLVESGGGLVQPGGSLRLSCAASGFTFSSYWMHWVRQAPGKGLVWVSRINRDGSTTSYADSVKGRFTISRDNAKNTLYLQMNRLRAEDTAVYYCARGGGAFDIWGQGTMVTVSS VL: QSVLTQPPSVSAAPGQKVTISCSGSSSNIGNYYVSWYQQLPGTAPKLLIYDNNKRPSGIPDRFSASKSGTSATLGITGLQTGDEADYYCGTWDDSLSAVVFGGGTKLTVL | –
11 | 262000 | 0.048 | 0.01 | 21F12A (antibody, V domains shown) VH: EVQLAESGGGSVQPGGSLRLSCAASGFTFSSYWMHWVRQVPGKGLVWVSRINSDGSTTTYADSVKGRFTISRDNAKNTLYLQMNSLRAEDTAVYYCARGGGSLDYWGQGTLVTVSS VL: QSVLTQPPSVSAAPGQKVTISCSGSSSNIGNYYVSWYQQLPGTAPKLLIYDNNKRPSGIPDRFSGSKSGTSATLGITGLRTGDEADYYCGTWDSSLSAVVFGGGTKLTVL | –
